Assay results: patent US12448436B2, “Antibody specifically binding to GRP94 or antigen-binding fragment thereof, and uses thereof” (KOOKMIN UNIVERSITY INDUSTRY ACADEMY COOPERATION FOUNDATION, priority 2020, dated 2025)
Changes are numbered by the printed parent chain. “Also recorded” adds a separate entry of the source.

B1: B5: anti-GRP94 human IgG antibody; CDRs SEQ ID NOS: 1 to 6, VH SEQ ID NO: 7, VL SEQ ID NO: 8 (antibody, V domains shown)
VH: EVQLLESGGGLVQPGGSLRLSCAASGFTFSNYYMSWVRQAPGKGLEWVSGIYPNSGSTYYADSVKGRFTISRDNSKNTLYLQMNSLRAEDTAVYYCARDPLHPARFPFDYWGQGTLVTVSS
VL: QSVLTQPPSASGTPGQRVTISCTGSSSNIGNNAVSWYQQLPGTAPKLLIYADSHRPSGVPDRFSGSKSGTSASLAISGLRSEDEADYYCGAWDASLNAYVFGGGTKLTVL
modifications: Amino acid sequence of heavy chain variable of GRP94 B5; Amino acid sequence of light chain variable of GRP94 B5
B2: E5: anti-GRP94 human IgG antibody; CDRs SEQ ID NOS: 9 to 14, VH SEQ ID NO: 15, VL SEQ ID NO: 16 (antibody, V domains shown)
VH: EVQLLESGGGLVQPGGSLRLSCAASGFTFSNYAMSWVRQAPGKGLEWVSGISSSSGSTYYADSVKGRFTTSRDNSKNTLYLQMNSLRAEDTAVYYCARDRHPFSPNWFDYWGQGTLVTVSS
VL: B1 VL with T23S, S26P, N31S, A33T, S35T, G90A, A91S, A94D, A98G
modifications: Amino acid sequence of heavy chain variable of GRP94 E5; Amino acid sequence of light chain variable of GRP94 E5
B3: 3G7: anti-GRP94 human IgG antibody; CDRs SEQ ID NOS: 25 to 30, VH SEQ ID NO: 31, VL SEQ ID NO: 32 (antibody, V domains shown)
VH: EVQLLESGGGLVQPGGSLRLSCAASGFTFSNYSMSWVRQAPGKGLEWVSGIYYGSGNKYYADSVKGRFTISRDNSKNTLYLQMNSLRAEDTAVYYCAKNLASFDYWGQGTLVTVSS
VL: B1 VL with T23S, N31S, A33S, S35N, A51S, D52N, A91T, A94S, N97S, A98G
modifications: Amino acid sequence of heavy chain variable of GRP94 3G7; Amino acid sequence of light chain variable of GRP94 3G7

Key:
[1] = Protein aggregation index (UV absorbance 280/340 nm); format: physicochemical; settings: antibody in PBS; 100×(Abs340/[Abs280−Abs340]); control HCl-aggregated GRP94 antigen
Description: To evaluate the production the antibodies (B5, E5, 2H5, and 3G7) of the present disclosure and the antibody aggregation after purification, each of the antibodies was added to PBS and absorbance was read at 280 nm and 340 nm using NanoDrop 2000 (Thermo Fisher Scientific). The protein aggregation index was calculated from UV absorbance according to the following equation. As a control, the GRP94 antigen that was induced by treatment with HCl to aggregate was used. Protein Aggregation Index=100×(Abs340/[Abs280−Abs340]) Equation 1

[2] = molecular target: recombinant rat GRP94 (Rattus norvegicus, UniProt Q66HD0); assay: ELISA binding to recombinant rat GRP94; settings: high specificity stated for human and rat antigens
Description: (§1) Each well of 96-well plates was coated with 0.1 μg of recombinant human GRP94 (rhGRP94), blocked with 3% (w/v) bovine serum albumin (BSA) in phosphate buffered saline (PBS) for 2 hours at 37° C., and incubated with 100 μL of GRP94 targeting IgG (20 μg/mL) for 2 hours at 37° C. The plates were washed thrice with 0.05% PBS-T, and 100 μL of a 500:1 dilution of the secondary antibody anti-human Fc Ab (Sigma-Aldrich) was added to each well. Incubation at 37° C. for 1 hour was followed by three rounds of washing with 0.05% PBS-T. Then, 100 μL of 3,3′,5,5′-tetramethylbenzidine (1-step ultra TMB) substrate solution was added to each well. Finally, optical densities were measured at 450 nm using a microplate reader (Synergy H1, BioTek).
(§2) After 96-well plates were coated with BSA, recombinant human GRP94, recombinant rat GRP94, and recombinant monkey GRP94, their binding affinity for each antibody (B5, E5, 2H5, or 3G7) was measured by ELISA.

[3] = molecular target: recombinant monkey GRP94 (Macaca fascicularis, UniProt Q4R520); assay: ELISA binding to recombinant monkey GRP94
Description: as §1, §2

[4] = tested on: HCT8 cells; assay: In vitro CRC proliferation assay, HCT8; format: cell-based, human; settings: 20 μg/mL; for cell index at the end point: 72 hours, MOCK 4.8±0.25; for cell growth inhibitory ability: end point, relative to the control PBS
Description: (§3) The four anti-GRP94 human IgG antibodies B5, E5, 2H5, and 3G7 of the present disclosure were examined in vitro for effect on CRC cell proliferation. […] The culture medium was removed by suction and the cells were washed with 10 mL of phosphate buffered saline (hereinafter PBS). After removal of PBS by suction, the cells were treated 2 mL of TrypLE Express Enzyme at 37° C. for 3 minutes in a 5% CO2 incubator. Thereafter, the cells were added with 8 mL of the culture medium, transferred to 15-mL tube, and centrifuged at 500×g for 5 minutes. After removal of the supernatant, the cells were suspended in the culture medium. From a small portion of the cell suspension, the cells were counted using the Countess II Automated Cell Counter. […] The 96-well plates were mounted on the Incucyte Zoom system. With the microscope magnification set at 4×, images were collected at intervals of 2 hours for 72 hours. From the collected images, cell growth was monitored using the IncuCyte FLR live content imaging system (Essen Bioscience, Ann Arbor, MI, USA).

[5] = tested on: HCT116 cells; assay: In vitro CRC proliferation assay, HCT116; format: cell-based, human; settings: 20 μg/mL, end point, relative to the control PBS
Description: The four anti-GRP94 human IgG antibodies B5, E5, 2H5, and 3G7 of the present disclosure were examined in vitro for effect on CRC cell proliferation. For use in the efficacy assay, the four cetuximab-resistant colorectal cancer cell lines HCT116, HT29, LoVo, and HCT-8 were each grown in a culture medium (HCT116, HCT8, HT29, and LoVo: RPMI1640+10% FBS+1% Penicillin-Streptomycin) at 37° C. in T-75 flask in a 5% CO2 incubator until reaching about 80-90% confluency. The culture medium was removed by suction and the cells were washed with 10 mL of phosphate buffered saline (hereinafter PBS). After removal of PBS by suction, the cells were treated 2 mL of TrypLE Express Enzyme at 37° C. for 3 minutes in a 5% CO2 incubator. Thereafter, the cells were added with 8 mL of the culture medium, transferred to 15-mL tube, and centrifuged at 500×g for 5 minutes. After removal of the supernatant, the cells were suspended in the culture medium. From a small portion of the cell suspension, the cells were counted using the Countess II Automated Cell Counter. […] The 96-well plates were mounted on the Incucyte Zoom system. With the microscope magnification set at 4×, images were collected at intervals of 2 hours for 72 hours. From the collected images, cell growth was monitored using the IncuCyte FLR live content imaging system (Essen Bioscience, Ann Arbor, MI, USA).

[6] = tested on: HT29 cells; assay: In vitro CRC proliferation assay, HT29; format: cell-based, human; settings: 20 μg/mL; for cell index at the end point: 72 hours, MOCK 2.94±0.04; for cell growth inhibitory ability: end point, relative to the control PBS
Description: as §3

[7] = molecular target: T1, rhGRP94 CTD fragment (part 4, Glu 602-Glu 799) (Homo sapiens, UniProt P14625); assay: Epitope comparison ELISA, rhGRP94 fragment part 4; format: binding; settings: antibody 1 μg/mL, 100 ng fragment
T1 construct: Part; 4 (Glu 602-Glu 799) of the human GRP94 gene (Gene ID: 7184); made in house; host or cells: Expi293 expression system (pcDNA 3.4)
Description: To determine which portion (or domain) of the GRP94 protein is bound by the developed antibodies, GRP94 fragments part. 1 and part. 4 were constructed wherein part. 1 was composed of the N-terminal domain (NTD), the Ca^2+ binding domain, the middle domain (MD), and the C-terminal domain (CTD) while part. 4 was derived from part. 1 by cutting off the NTD, the Ca^2+ binding domain, and the MD. In brief, Part. 1 (Asp 22-Glu 799) and Part. 4 (Glu 602-Glu 799) of the human GRP94 gene (Gene ID: 7184) were synthesized and subcloned into pcDNA 3.4 (Invitrogen) mammalian expression vector to finally recombinant DNAs. Using the Expi293 expression system (Invitrogen), the proteins were expressed and purified. The purified antigens part. 1 and part. 4 were analyzed for molecular weight by SDS-PAGE.
Next, ELISA was carried out to examine whether the four antibodies of the present disclosure bind to part 1 and part 4. First, 100 ng of each of the rhGRP94 fragment parts 1 and 4 was fixed to a high binding plate by incubation at 4° C. for 14 hours (overnight binding, 14 hrs). The same amount of BSA was used as a negative control. Then, the plate was blocked with 3% BSA, followed by incubation at 37° C. for 2 hours with 100 μL containing each of the anti-GRP94 antibodies (B5, E5, 2H5, and 3G7) of the present disclosure at a density of 1 μg/mL. After three rounds of washing with PBS-T, the plate was treated at 37° C. for 1 hour with a 5000:1 dilution of anti-Fc-HRP (Catalog #31423 Invitrogen). Color development was induced using 1-step-ultra TMB (Invitrogen) for 10 minutes and then terminated with […] (2N). Absorbance at 450 nm was read.

recombinant rat GRP94, sequence (Q66HD0 22-804): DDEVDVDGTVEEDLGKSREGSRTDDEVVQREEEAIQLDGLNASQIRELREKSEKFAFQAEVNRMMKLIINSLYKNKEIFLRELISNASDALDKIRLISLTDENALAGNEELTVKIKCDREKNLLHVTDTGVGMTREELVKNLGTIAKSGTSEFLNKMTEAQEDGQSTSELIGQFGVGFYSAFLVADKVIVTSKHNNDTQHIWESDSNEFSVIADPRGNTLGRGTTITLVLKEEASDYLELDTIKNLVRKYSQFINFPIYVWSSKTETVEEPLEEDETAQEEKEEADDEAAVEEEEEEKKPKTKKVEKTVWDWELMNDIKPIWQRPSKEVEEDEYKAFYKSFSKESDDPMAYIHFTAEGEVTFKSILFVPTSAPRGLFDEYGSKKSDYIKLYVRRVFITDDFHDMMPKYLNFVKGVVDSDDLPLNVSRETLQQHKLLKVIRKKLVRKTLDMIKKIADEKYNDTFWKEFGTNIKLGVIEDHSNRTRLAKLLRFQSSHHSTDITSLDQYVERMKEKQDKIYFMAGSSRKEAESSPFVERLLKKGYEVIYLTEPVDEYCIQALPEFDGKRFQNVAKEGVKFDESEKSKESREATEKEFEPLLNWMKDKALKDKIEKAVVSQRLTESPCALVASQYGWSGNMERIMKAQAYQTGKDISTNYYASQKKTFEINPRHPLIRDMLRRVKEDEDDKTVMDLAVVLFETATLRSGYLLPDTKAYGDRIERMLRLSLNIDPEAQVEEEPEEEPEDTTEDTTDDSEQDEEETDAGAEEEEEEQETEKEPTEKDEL
recombinant monkey GRP94, sequence (Q4R520 22-804): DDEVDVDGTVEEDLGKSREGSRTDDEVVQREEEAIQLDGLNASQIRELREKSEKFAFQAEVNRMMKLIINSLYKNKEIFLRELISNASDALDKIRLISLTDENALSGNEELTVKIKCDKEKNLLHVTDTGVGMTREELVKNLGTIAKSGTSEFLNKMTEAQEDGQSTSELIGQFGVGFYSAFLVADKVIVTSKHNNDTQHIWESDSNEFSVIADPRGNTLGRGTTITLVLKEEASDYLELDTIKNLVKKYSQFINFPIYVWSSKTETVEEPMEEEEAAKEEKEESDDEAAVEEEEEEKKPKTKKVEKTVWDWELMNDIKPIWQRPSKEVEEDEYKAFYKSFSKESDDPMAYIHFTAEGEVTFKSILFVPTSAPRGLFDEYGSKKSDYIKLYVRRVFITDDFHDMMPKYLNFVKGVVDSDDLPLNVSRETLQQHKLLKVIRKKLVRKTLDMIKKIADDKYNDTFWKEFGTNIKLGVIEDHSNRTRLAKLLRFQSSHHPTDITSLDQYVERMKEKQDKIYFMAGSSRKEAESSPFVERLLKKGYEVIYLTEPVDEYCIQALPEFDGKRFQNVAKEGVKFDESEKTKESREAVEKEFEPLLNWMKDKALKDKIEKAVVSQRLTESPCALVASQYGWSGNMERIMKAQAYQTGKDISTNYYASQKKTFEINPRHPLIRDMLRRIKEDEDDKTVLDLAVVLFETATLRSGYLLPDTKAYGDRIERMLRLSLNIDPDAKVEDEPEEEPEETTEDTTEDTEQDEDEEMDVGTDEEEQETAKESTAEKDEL
T1 sequence (P14625 602-799): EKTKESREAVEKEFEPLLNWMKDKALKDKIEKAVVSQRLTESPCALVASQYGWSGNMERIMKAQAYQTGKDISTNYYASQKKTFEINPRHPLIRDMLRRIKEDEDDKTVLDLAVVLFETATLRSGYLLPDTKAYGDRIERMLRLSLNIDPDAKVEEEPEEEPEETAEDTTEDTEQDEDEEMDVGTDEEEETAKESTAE

| Molecule | protein aggregation index [1] | binding to recombinant rat GRP94 [2] | binding to recombinant monkey GRP94 [3] | cell index at the end point [4] | cell growth inhibitory ability [4] | cell growth inhibitory ability [5] | cell index at the end point [6] | cell growth inhibitory ability [6] | binding to part 4 (Glu 602-Glu 799) [7] |
| --- | --- | --- | --- | --- | --- | --- | --- | --- | --- |
| B1 | low | bind | bind | 3.15±0.21 | excellent inhibitory activity | statistically significant; also recorded: excellent inhibitory activity | 2.32±0.02 | statistically significant; also recorded: excellent inhibitory activity | did not bind |
| B2 | low | bind | bind | 3.33±0.31 | excellent inhibitory activity | statistically significant; also recorded: excellent inhibitory activity | 2.32±0.08 | statistically significant; also recorded: excellent inhibitory activity | did not bind |
| B3 | low | bind | bind | 3.40±0.16 | excellent inhibitory activity | statistically significant; also recorded: excellent inhibitory activity | 2.17±0.06 | statistically significant; also recorded: excellent inhibitory activity | did not bind |
